T1: human FAP (fibroblast activation protein) on HT1080hFAP cells (human, UniProt Q12884 1-760)
T1 construct: also called seprase
T1 sequence: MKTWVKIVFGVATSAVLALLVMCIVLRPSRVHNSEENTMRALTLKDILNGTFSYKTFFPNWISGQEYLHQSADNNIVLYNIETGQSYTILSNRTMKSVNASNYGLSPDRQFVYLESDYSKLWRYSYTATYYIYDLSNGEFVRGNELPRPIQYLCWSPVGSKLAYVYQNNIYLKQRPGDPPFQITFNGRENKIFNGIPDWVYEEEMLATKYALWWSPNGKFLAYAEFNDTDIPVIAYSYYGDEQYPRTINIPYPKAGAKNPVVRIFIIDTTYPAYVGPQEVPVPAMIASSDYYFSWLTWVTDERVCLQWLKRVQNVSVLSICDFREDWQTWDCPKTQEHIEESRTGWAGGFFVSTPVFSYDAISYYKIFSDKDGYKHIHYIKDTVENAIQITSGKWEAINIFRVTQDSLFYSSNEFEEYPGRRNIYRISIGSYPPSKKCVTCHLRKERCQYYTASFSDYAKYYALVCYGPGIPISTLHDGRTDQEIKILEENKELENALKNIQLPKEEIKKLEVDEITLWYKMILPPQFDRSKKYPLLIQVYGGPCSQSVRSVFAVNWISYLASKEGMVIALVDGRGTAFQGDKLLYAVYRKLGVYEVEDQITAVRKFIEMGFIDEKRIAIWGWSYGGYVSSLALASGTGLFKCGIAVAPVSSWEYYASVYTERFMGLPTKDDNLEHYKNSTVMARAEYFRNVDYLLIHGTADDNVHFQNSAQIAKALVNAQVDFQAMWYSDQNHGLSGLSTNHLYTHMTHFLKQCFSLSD


Target: T1, human FAP (fibroblast activation …)
Assay: flow cytometry cell-based binding assay, HT1080hFAP against FAP-negative HT1080 cells

Binder | binding result
DARPin #17 (designed binder, also called designed ankyrin repeat domain #17; not shown: N terminal His6 tag; C terminal FLAG tag) DLGKKLLEAARAGQDDEVRILMANGADVNAADNYGITPLHLAAYRGHLEIVEVLLKTGADVNAHDNVGNTPLHLAAAKGHLEIVEVLLKAGADVNADDVQGVTPLHLAASQGHLEIVEVLLKHGADVNAQDKFGKTPFDLAIDNGNEDIAEVLQ | binds
DARPin #11 (designed binder, also called designed ankyrin repeat domain #11; not shown: N terminal His6 tag; C terminal FLAG tag) DLVKKLLEAARAGQDDEVRILMANGADVNANDHFGITPLHLTAWWGHLEIVEVLLKAGADVNAVDHWGTTPLHLAAHQGHLEIVEVLLKHGADVNAQDKFGKTAFDISIDNGNEDIAEVLQ | binds
DARPin #10 (designed binder, also called designed ankyrin repeat domain #10; not shown: N terminal His6 tag; C terminal FLAG tag) DLGKKLLEAARAGQDDEVRILMANGADVNAADDQGRTPLHLAAMHGHLEIVEVLLKTGADVNANDWFGITPLHLAAWWGHLEIVEVLLKAGADVNAVDHSGDTPLHLAAHLGHLEIVEVLLKHGADVNAQDKFGKTPFDLAIDNGNEDIAEVLQ | binds
DARPin #15 (designed binder, also called designed ankyrin repeat domain #15; not shown: N terminal His6 tag; C terminal FLAG tag) DLGKKLLEAARAGQDDEVRILMANGADVNAMDMWGITPLHLAAWAGHLEIVEVLLKTGADVNAFDQHGNTPLHLAAYRGHLEIVEVLLKTGADVNAHDNWGTTPLHLTAHNGHLEIVEVLLKAGADVNAQDKFGKTPFDLAIDNGNEDIAEVLQ | binds
DARPin #3 (designed binder, also called designed ankyrin repeat domain #3; not shown: N terminal His6 tag; C terminal FLAG tag) DLGKKLLEAARAGQDDEVRILMANGADVNAQDMTGKTPLHLAAREGHLEIVEVLLKTGADVNAKDLWGVTPLHLAAFSGHLEIVEVLLKTGADVNAWDWEGKTPLHLAAVKGHPEIVEVLLKHGADVNAQDKFGKTPFDLAIDNGNEDIAEVLQ | binds
DARPin #5 (designed binder, also called designed ankyrin repeat domain #5; not shown: N terminal His6 tag; C terminal FLAG tag) DLGKKLLEAARAGQDDEVRILMANGADVNAEDHVGRTPLHLAAAHGHLEIVEVLLKTGADVNARDRHGITPLHLAAWSGHLEIVEVLLKTGADVNASDKQGNTPLHLAAYRGHLEIVEVLLEAGADVNAQDKFGKTPFDLAIDNGNEDIAEVLQ | binds
DARPin #4 (designed binder, also called designed ankyrin repeat domain #4; not shown: N terminal His6 tag; C terminal FLAG tag) DLGKKLLDAASVGQDDEVRILMANGADVNASDTYGRTPLHVAAQHGHLEIVDVLLAHGADVNASNAYGSTPLHVAAWTGHLEIVDVLLAYGADVNASNSQGNTPLHAAAATGHLEIVEVLLKHGADVNAQDKFGKTPFDLAIDNGNEDIAEVLQ | binds
DARPin #23 (designed binder, also called designed ankyrin repeat domain #23; not shown: N terminal His6 tag; C terminal FLAG tag) DLGKKLLEAARYGQDDEVRILMANGADVNAEDQHGHTPLHLAAFSGHLEIVEVLLKTGADVNANDINGVTPLHLAANVGHLEIVEVLLKHGADVNAQDKFGKTPFDLAAYLGNEDIAEVLQ | binds
DARPin #13 (designed binder, also called designed ankyrin repeat domain #13; not shown: N terminal His6 tag; C terminal FLAG tag) DLGKKLLEAARAGQDDEVRILMANGADVNATDQHGRTPLHLAAHTGHLEIVEVLLKTGADVNAQDHQGITPLHLAAFKGHLEIVEVLLKTGADVNAQDNWGYTPLHLAAARGHLEIVEVLLKAGADVNAQDKFGKTPFDLAIDNGNEDIAEVLQ | binds
DARPin #20 (designed binder, also called designed ankyrin repeat domain #20; not shown: N terminal His6 tag; C terminal FLAG tag) DLGKKLLEAARAGQDDEVRILMANGADVNAVDYQGRTPLHLAAQYGHLEIVEVLLKTGADVNAQDHHGITPLHLAAFWGHLEIVEVLLKAGADVNAKDDQGNTPLHLAAWRGHLEIVEVLLKHGADVNAQDKFGKTPFDLAIDNGNEDIAEVLQ | binds
DARPin #25 (designed binder, also called designed ankyrin repeat domain #25; not shown: N terminal His6 tag; C terminal FLAG tag) DLGKKLLEAARAGQDDEVRILMANGADVNATDWQGSTPLHLAAQHGHLEIVEVLLKTGADVNAEDQNGITPLHLAAYWGHLEIVEVLLKAGADVNAVDRQGNTPLHLAAVWGHLEIVEVLLKHGADVNAQDKFGKTPFDLAIDNGNEDIAEVLQ | binds
DARPin #21 (designed binder, also called designed ankyrin repeat domain #21; not shown: N terminal His6 tag; C terminal FLAG tag) DLGKKLLEAAELGQLDEVRILMANGADVNAMDQHGITPLHLAAWHGHLEIVEVLLKTGADVNAKDQDGSTPLHLAAYLGHLEIVEVLLKTGADVNAFDKFGNTPLHLAAHRGHLEIVEVLLKHGADVNAQDKFGKTPFDLAIDNGNEDIAEVLQ | binds
DARPin #22 (designed binder, also called designed ankyrin repeat domain #22; not shown: N terminal His6 tag; C terminal FLAG tag) DLGKKLLEAARAGQDDEVRILMANGADVNASDWWGITPLHLAAYWGHLEIVEVLLKTGADVNAQDNQGITPLHLAATLGHLEIVEVLLKHGADVNAQDKFGKTPFDLAIDNGNEDIAEVLQ | binds
DARPin #8 (designed binder, also called designed ankyrin repeat domain #8; not shown: N terminal His6 tag; C terminal FLAG tag) DLGKKLLEAARAGQDDEVRILMANGADVNAADEYGITPLHLAAFFGHLEIVEVLLKTGADVNADDAWGSTPLHLAAYKGHLEIVEVLLKHGADVNAQDKFGKTPFDLAIDNGNEDIAEVLQ | binds
DARPin #12 (designed binder, also called designed ankyrin repeat domain #12; not shown: N terminal His6 tag; C terminal FLAG tag) DLGKKLLEAARAGQDDEVRILMANGADVNAQDQRGRTPLHLAAAWGHLEIVEVLLKTGADVNAADDMGHTPLHLAAAFGHLEIVEVLLKHGADVNAQDKFGKTPFDLAIDNGNEDIAEVLQ | binds
DARPin #24 (designed binder, also called designed ankyrin repeat domain #24; not shown: N terminal His6 tag; C terminal FLAG tag) DLGKKLLEAARAGQDDEVRILMANGADVNAIDVHGITPLHLAAYWGHLEIVEVLLKAGADVNAEDESGHTPLHLAAHWGHLEIVEVLLKHGADVNAQDKFGKTPFDLAIDNGNEDIAEVLQ | binds
DARPin #16 (designed binder, also called designed ankyrin repeat domain #16; not shown: N terminal His6 tag; C terminal FLAG tag) DLGKKLLEAARAGQDDEVRILMANGADVNAKDRYGITPLHLAAYWGHLEIVEVLLKAGSDVNALDYHGSTPLHLAAWFGHLEIVEVLLKHGADVNAQDKFGKTPFDLAIDNGNEDIAEVLQ | binds
DARPin #26 (designed binder, also called designed ankyrin repeat domain #26; not shown: N terminal His6 tag; C terminal FLAG tag) DLGKKLLEAARAGQDDEVRILMANGADVNAIDWWGITPLHLAALFGHLEIVEVLLKTGADVNAEDRLGFTPLHLAATTGHLEIVEVLLKAGADVNAQDKFGKTPFDLAIDNGNEDIAEVLQ | binds
DARPin #1 (designed binder, also called designed ankyrin repeat domain #1; not shown: N terminal His6 tag; C terminal FLAG tag) DLGKKLLDAARAGQDDEVRILMANGADVNAMDVWGVTPLHLAAWHRHLEIVEVLLKTGADVNANDDSGFTPLHLAAHWGHLEIVEVLLKHGADVNAQDKFGKTPFDLAIDNGNEDIAEVLQ | binds

— patent US20260103541A1 (UNIVERSIT T Z RICH, published 2026)
